In US20090155176A1 one finds IC50 data, which are given here for 1 substance.

The target of the assay is LFA-1 (lymphocyte function-associated antigen-1), purified heterodimer captured on ELISA plates (human) (UniProt P20701). Nature of the assay: competition ELISA (LFA-1/ICAM-1-Ig). The conditions noted are these: ligand. In general terms: In an ELISA, binding on a coated surface is turned into a signal by an enzyme label.
Chain of LFA-1 (lymphocyte function-associated antigen-1), purified heterodimer captured on ELISA plates (human) (P20701 26-1170, chain 1 of 2): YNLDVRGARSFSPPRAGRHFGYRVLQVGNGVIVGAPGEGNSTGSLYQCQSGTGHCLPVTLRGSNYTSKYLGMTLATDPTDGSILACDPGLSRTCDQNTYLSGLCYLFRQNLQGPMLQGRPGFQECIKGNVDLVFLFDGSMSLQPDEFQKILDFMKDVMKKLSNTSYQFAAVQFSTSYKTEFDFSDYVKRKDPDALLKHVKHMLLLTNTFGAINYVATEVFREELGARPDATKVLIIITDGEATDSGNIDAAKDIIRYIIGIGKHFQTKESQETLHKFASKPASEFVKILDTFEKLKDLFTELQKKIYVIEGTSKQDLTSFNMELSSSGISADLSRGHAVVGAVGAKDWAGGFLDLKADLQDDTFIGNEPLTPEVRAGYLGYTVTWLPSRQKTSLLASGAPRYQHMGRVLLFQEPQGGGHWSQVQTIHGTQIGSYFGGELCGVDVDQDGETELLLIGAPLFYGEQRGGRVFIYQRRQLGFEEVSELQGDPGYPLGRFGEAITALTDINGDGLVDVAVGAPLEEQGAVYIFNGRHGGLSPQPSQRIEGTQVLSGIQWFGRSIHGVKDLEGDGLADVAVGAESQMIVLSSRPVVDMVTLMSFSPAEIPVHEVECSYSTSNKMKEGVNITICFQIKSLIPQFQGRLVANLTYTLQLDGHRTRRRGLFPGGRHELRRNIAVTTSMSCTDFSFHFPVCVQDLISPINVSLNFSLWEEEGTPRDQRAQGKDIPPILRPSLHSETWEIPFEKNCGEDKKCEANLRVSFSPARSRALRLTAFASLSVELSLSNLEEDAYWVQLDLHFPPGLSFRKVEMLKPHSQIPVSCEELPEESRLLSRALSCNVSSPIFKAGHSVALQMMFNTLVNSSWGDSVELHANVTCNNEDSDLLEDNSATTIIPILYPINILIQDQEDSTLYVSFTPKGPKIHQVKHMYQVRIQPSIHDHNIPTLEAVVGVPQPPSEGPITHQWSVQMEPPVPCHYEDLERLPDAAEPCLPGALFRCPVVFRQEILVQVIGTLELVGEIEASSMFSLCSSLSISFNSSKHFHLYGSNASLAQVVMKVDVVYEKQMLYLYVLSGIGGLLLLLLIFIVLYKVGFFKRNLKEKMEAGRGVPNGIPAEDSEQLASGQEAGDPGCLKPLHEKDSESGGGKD
Chain of LFA-1 (lymphocyte function-associated antigen-1), purified heterodimer captured on ELISA plates (human) (P05107 23-769, chain 2 of 2, further chain): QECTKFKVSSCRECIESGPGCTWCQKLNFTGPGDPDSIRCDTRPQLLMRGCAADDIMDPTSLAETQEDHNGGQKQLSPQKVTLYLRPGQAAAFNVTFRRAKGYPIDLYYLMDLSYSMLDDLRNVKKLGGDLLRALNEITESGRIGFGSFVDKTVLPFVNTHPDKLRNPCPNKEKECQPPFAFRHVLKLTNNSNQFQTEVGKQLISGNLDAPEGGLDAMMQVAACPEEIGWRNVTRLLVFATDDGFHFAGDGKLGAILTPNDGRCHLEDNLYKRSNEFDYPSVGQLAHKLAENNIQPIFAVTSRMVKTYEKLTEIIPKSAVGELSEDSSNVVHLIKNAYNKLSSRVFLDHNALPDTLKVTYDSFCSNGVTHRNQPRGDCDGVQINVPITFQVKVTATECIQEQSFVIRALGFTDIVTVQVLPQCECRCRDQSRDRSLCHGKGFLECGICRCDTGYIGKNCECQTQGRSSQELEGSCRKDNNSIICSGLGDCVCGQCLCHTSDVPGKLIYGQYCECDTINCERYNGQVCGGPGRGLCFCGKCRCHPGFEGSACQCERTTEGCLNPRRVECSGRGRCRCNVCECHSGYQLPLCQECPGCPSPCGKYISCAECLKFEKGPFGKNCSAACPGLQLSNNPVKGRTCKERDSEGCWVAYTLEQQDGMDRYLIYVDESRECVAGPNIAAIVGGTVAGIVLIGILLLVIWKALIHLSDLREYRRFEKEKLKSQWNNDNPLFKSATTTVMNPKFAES

Chain of sICAM-1 (soluble ICAM-1) (P05362 28-480): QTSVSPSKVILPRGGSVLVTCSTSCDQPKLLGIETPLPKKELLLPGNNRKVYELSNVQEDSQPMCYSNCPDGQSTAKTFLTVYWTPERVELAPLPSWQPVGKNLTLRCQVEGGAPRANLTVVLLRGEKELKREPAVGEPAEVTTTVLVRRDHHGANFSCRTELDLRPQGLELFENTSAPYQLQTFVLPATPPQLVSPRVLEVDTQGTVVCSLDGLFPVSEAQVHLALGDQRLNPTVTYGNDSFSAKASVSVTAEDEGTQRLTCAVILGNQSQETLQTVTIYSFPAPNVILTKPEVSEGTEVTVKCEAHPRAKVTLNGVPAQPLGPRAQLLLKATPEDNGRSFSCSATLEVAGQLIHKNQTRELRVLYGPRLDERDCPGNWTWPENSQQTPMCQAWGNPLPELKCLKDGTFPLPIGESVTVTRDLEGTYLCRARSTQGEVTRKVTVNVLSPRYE

For orientation: IC50 means the concentration at which inhibition is half-maximal. In turn, “sICAM-1 (soluble ICAM-1) (from UniProt P05362 28-480)” came in with an IC50 of 290 nM. This lies in the sub-micromolar range.
